One assay addresses T1, PD-L1 (UniProt Q9NZQ7 19-238, limits assumed).
T1 construct: also called unrelated protein PD-L1
Kind of assay: ELISA EC50 assay. Background: In an ELISA, binding on a coated surface is turned into a signal by an enzyme label.

Another assay addresses T2, CD226 (UniProt Q15762 19-247, limits assumed).
T2 construct: also called related family member protein CD226
T2 sequence (looked up): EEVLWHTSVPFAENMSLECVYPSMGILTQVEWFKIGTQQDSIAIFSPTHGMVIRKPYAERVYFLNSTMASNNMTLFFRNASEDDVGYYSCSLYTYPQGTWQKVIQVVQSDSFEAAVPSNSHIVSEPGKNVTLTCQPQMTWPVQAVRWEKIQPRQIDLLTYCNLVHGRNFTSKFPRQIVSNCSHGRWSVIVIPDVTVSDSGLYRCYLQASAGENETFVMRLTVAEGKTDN
The assay is described as follows: ELISA EC50 assay.

Assay [1] deals with T3, cynomolgus monkey TIGIT ECD expressed on the CHO-S cell surface (cynomolgus monkey).
T3 construct: extracellular domain; also called CHO-S-cynoTIGIT
The assay is described as follows: flow cytometry on CHO-S cells expressing cynomolgus monkey TIGIT ECD. (In flow cytometry, cells or beads pass a laser one at a time.)

Assay [2] concerns the target T4, His-tagged human TIGIT (human, UniProt Q495A1 22-141).
T4 construct: soluble analyte in SPR
T4 sequence: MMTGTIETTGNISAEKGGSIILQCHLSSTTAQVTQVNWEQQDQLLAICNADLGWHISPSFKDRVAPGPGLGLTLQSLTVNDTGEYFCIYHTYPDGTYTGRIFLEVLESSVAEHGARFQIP
The assay is described as follows: SPR Biacore, antibody captured on anti-human Fc, His-tagged TIGIT injected. For orientation: Surface plasmon resonance follows binding to a sensor surface in real time, without labels.

Assay [3] deals with T5, His-tagged cynomolgus monkey TIGIT (cynomolgus monkey, UniProt A0A7N9I9V4 89-209).
T5 construct: also called Cyno TIGIT; cynomolgus monkey TIGIT (Novoprotein cat. No. CP02)
T5 sequence (A0A7N9I9V4 entry or part of it): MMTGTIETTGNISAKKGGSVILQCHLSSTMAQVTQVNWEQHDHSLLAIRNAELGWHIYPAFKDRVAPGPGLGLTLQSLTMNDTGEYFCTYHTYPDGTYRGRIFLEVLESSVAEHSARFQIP
The description is as above.

Assay [4] concerns the target T6, human TIGIT ECD expressed on the CHO-S cell surface (human, UniProt Q495A1 22-141).
T6 construct: sections 3.13 and 4.1 say only stably expressing human TIGIT; also called CHO-S-hTIGIT; CHO-S-huTIGIT
T6 sequence: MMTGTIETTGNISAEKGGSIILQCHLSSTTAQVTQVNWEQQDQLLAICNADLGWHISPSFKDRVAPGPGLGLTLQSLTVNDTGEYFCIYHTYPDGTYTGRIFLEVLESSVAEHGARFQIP
Kind of assay: flow cytometry on CHO-S cells expressing human TIGIT ECD.

Assay [5] has as its target T6, human TIGIT ECD expressed on the CHO-S …. Kind of assay: cell-based or functional assay.
Assay [6] has as its target T4, His-tagged human TIGIT. The assay is described as follows: SPR, IgG captured on anti-human Fc, His-tagged human TIGIT injected.
For assay [7], the target named is T3, cynomolgus monkey TIGIT ECD expressed …. The assay is described as follows: flow cytometry on CHO-S cells expressing cyno TIGIT ECD.
Assay [8] addresses T4, His-tagged human TIGIT. Kind of assay: SPR, IgG captured on anti-human Fc, His-tagged human TIGIT injected. The source holds these as a separate data set.
The target in assay [9] is T7, human TIGIT on cells (primary T cells, transfected HEK293 cells, Jurkat reporter cells, NK cells) (human, UniProt Q495A1 22-244).
T7 sequence: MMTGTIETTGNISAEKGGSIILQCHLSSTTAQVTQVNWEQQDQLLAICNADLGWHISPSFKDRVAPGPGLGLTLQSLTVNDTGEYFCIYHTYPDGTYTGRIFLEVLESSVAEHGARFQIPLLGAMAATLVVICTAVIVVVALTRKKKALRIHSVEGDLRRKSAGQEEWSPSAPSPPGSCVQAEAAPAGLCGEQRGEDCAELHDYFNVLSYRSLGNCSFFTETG
The assay is described as follows: cell-based or functional assay.

In assay [10] the target is T6, human TIGIT ECD expressed on the CHO-S …. The assay is described as follows: flow cytometry on CHO-S cells expressing human TIGIT ECD. This is another data set of the same source.
Assay [11] has the same target. Kind of assay: flow cytometry blocking assay on CHO-S-hTIGIT cells, competitor muCD155-Fc; competitor muCD155-Fc; muIgG2c version.
The target is the same in assay [12]. Kind of assay: flow cytometry blocking assay on CHO-S-hTIGIT cells, competitor muCD112; competitor muCD112; muIgG2c version.

Several values for one entry are separate records, joined by “and”; a condition that tells them apart may be missing. Identical values can stand only once.

T1 sequence (Q9NZQ7 19-238 limits assumed): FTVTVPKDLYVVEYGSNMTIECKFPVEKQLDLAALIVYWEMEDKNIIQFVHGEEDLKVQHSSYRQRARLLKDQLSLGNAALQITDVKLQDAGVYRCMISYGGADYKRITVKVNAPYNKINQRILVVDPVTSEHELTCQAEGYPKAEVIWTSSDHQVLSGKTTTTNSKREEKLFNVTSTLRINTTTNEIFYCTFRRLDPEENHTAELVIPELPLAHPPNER

B1: 3965D08 (antibody, human IgG1, V domains shown)
VH: EVQLVQSGSELKKPGASVKVSCKASGYTFTSYPMNWVRQAPGQGLEWMGWINTNTGNPTYAQGFTGRFVFSLDTSVSTAYLQISSLKAEDTAVYYCARTGYSGSYYWFDPWGQGTLVTVSS
VL: DIRLTQSPSFLSASVGDRVTITCRASQGISSYLAWYQQKPGKAPKFLIYAASTLQSGVPSRFSGSGSGTEFTLTISSLQPEDFATYYCQQLNSYLTFGQGTRLEIK
notes: constant regions correspond to those of H03-12 (human IgG1, kappa)
By EC50 (read off the curve) is commonly meant the concentration giving half of the maximal effect. Usually Kd stands for the concentration at which binding is half-saturated. What is called koff is the first-order rate constant of dissociation. The term kon denotes the second-order rate constant of association. Regarding B1, the binding result in the assay with PD-L1 and with CD226 was “no binding” throughout. For the same molecule, the “EC50 (read off the curve)” value in assay [1] is about 3 nM; in [4] it was about 5 nM. Further, the Kd with His-tagged human TIGIT [2] was 10.3 nM; in assay [3] it was 8.66 nM and 8.7 nM. For the same molecule, the koff with His-tagged human TIGIT [2] came out at 0.00497 s⁻¹; in [3], 0.00565 s⁻¹. For the same molecule, the kon with His-tagged human TIGIT [2] is 482000 M⁻¹ s⁻¹; in assay [3], 653000 M⁻¹ s⁻¹.

B2: 3963H03 (antibody, human IgG1, kappa, V domains shown)
VH: EIQLVQSGSELKKPGASVKVSCKASGYTFTSYPMNWVRQAPGQGLEWMGWINTNTGNPTYAQGFTGRFVFSLDTSVSTAYLQISSLKAEDTAVYYCARVGGYSVDEYAFDVWGQGTMVTVSS
VL: AIRLTQSPSFLSASVGDRVTITCRASQGISSYLAWYQQKPGKAPKLLIYAASTLQSGVPSRFSGSGSGTEFTLTISSLQPEDFATYYCQQLNSYPTFGGGTKVEIKR
notes: fully human IgG1 kappa, B-cell cloning hit from OmniRat; also called 3963H03 VH; 3963H03 VK
By EC50 is commonly meant the midpoint of the concentration-response curve. As to B2, in assay [5], the “ADCC EC50, nM (Donor 1005-4464)” value was 0.028 nM. In assay [5], the “ADCC EC50, nM (Donor 1102-7215)” value was determined as 0.069 nM. In addition, the “ADCC EC50, nM (Donor 1106-0557)” value in assay [5] was found to be 0.08 nM. Besides, the binding result with PD-L1 and in the assay with CD226 was “no binding” in each case. The koff is 0.00063 s⁻¹ with His-tagged human TIGIT [6], 0.00063 s⁻¹ in the assay with His-tagged human TIGIT [8], 0.000407 s⁻¹ with His-tagged human TIGIT [2] and 0.000213 s⁻¹ in assay [3]. In addition, the EC50 in assay [7] was found to be 3.6 nM; in assay [9], 6.3 µg/mL; in assay [10], 4.7 nM. Further, the Kd with His-tagged human TIGIT [2] is 3.37 nM and 3.4 nM; in [3], 1.45 nM and 1.5 nM. Further, the kon in the assay with His-tagged human TIGIT [2] was determined as 121000 M⁻¹ s⁻¹; in assay [3], 147000 M⁻¹ s⁻¹.

B3: 7728B03 (antibody, V domains shown)
VH: QMQLVQSGSELKKPGASVKVSCKASGYTFTSYPMNWVRQAPGQGLEWMGWINTNTGNPTYAQGFTGRFVFSLDTSVSTAYLQISSLKAEDTAVYYCARTGGYSVDEYSFDIWGQGTTVTVSS
VL: DIQLTQSPSFLSASVGDRVTITCRASQGISSYLAWYQQKPGKAPKLLIYAASTLQSGVPSRFSGSGSGTEFTLTISSLQPEDFATYYCHQTIFRPTFGGGTKVEIK
notes: constant regions correspond to those of H03-12
Regarding B3, in the assay with His-tagged human TIGIT [2], the dissociation constant (Kd) was 0.0661 nM and 0.07 nM; the koff stood at 2.15e-05 s⁻¹; the kon stood at 325000 M⁻¹ s⁻¹. Besides, in assay [3], the Kd is 0.0519 nM and 0.05 nM; the koff was found to be 1.57e-05 s⁻¹; the kon was 303000 M⁻¹ s⁻¹.

B4: 3964A06 (antibody, human IgG1, V domains shown)
VH: EVQLVQSGSELKKPGASVKVSCKASGYTFTAYPMNWVRQAPGQGLEWMGWINTNTGNPTYAQGFTGRFVFSLDTSVSTAYLQISSLKAEDTAVYYCARVGGYSVYDYAFDIWGQGTMVTVSS
VL: DIQLTQSPSFLSASVGDRVTITCRASQGISSYLAWYQQKPGKAPKLLIYAASTLQSGVPSRFSGSGSGTEFTLTISSLQPEDFATYYCQQLNSYPTFGGGTKVEIK
Turning to B4, the binding result in the assay with PD-L1 and with CD226 was “no binding” throughout. In addition, the “EC50 (read off the curve)” value in [1] is about 8 nM; in assay [4] it was about 9 nM. The Kd was 2.62 nM and 2.6 nM with His-tagged human TIGIT [2]; 1.11 nM and 1.1 nM in assay [3]. In addition, the values for the koff (in the assay with His-tagged human TIGIT [2]; in assay [3]) were 0.000233 s⁻¹ and 0.000122 s⁻¹, respectively. For the same molecule, the kon worked out at 89100 M⁻¹ s⁻¹ in the assay with His-tagged human TIGIT [2] and 109000 M⁻¹ s⁻¹ in assay [3].

B5: 7729G05 (antibody, V domains shown)
VH: QVQLVQSGSELKKPGASVKVSCKASGYTFTSYPMNWVRQAPGQGLEWMGWINTNTGNPTYAQGFTGRFVFSLDTSVSTAYLQISSLKAEDTAVYYCARVGGFTVPEYAFDIWGQGTTVTVSS
VL: DIRLTQSPSFLSASVGDRVTITCRASQGISSYLAWYQQKPGKAPKLLIYAASTLQSGVPSRFSGSGSGTEFTLTISSLQPEDFATYYCGQVMRYPAFGGGTKVEIK
notes: as for B3
B5: in the assay with His-tagged human TIGIT [2], the equilibrium dissociation constant (Kd) was 0.0173 nM and < 0.05 nM; the off-rate constant (koff) is 1.33e-05 s⁻¹; the kon is 767000 M⁻¹ s⁻¹. Also, in [3], the dissociation constant Kd is 0.0211 nM and < 0.05 nM; the koff is 1.23e-05 s⁻¹; the association rate constant (kon) came to 581000 M⁻¹ s⁻¹.

B6: 3963H03-12-muIgG2c (antibody, V domains shown)
VH: QVQLVQSGSELKKPGASVKVSCKASGYTFTSYPMNWVRQAPGQGLEWMGWINTNTGNPTYAQGFTGRFVFSLDTSVSTAYLQISSLKAEDTAVYYCARVGGYSVDEYAFDVWGQGTLVTVSS
VL: DIQLTQSPSFLSASVGDRVTITCRASQGISSYLAWYQQKPGKAPKLLIYAASTLQSGVPSRFSGSGSGTEFTLTISSLQPEDFATYYCQQLSSYPTFGGGTKVEIK
notes: also called version of 3963H03-12 with a murine immunoglobulin
For orientation: IC50 means the concentration that inhibits the measured activity by half. As for B6, the figures for the half-maximal inhibitory concentration (IC50) in assay [11] and in assay [12] were 0.291 µg/mL and 1.19 µg/mL, respectively.

B7: 3966C11 (antibody, human IgG1, V domains shown)
VH: EIQLVQSGSELKKPGASVKVSCKASGYTFTSYPMNWVRQAPGQGLEWMGWINTNTGNPTNAQGFTGRFVFSLDTSVSTAYLQISSLKAEDTAVYYCARVGGYGGYDYAFDIWGQGTMVTVSS
VL: DIQLTQSPSFLSASVGDRVTITCRASQGISSYLAWYQQKPGKAPKLLIYAASTLQSGVPSRFSGSGSGTEFTLTISSLQPEDFATYYCQQLNSYPTFGGGTKLEIK
notes: as for B1
In the case of B7, the binding result with PD-L1 and with CD226 was “no binding” in each case. Also, the “EC50 (read off the curve)” value in assay [1] is about 7 nM; in [4], about 9 nM. The dissociation constant (Kd) was 2.53 nM and 2.5 nM in the assay with His-tagged human TIGIT [2]; 1.41 nM and 1.4 nM in assay [3]. In addition, the koff is 0.000274 s⁻¹ in the assay with His-tagged human TIGIT [2] and 0.000167 s⁻¹ in assay [3]. Further, the kon with His-tagged human TIGIT [2] came to 108000 M⁻¹ s⁻¹; in assay [3] it was 118000 M⁻¹ s⁻¹.

For the origin of these results see patent publication US20220403022A1 (Merck KGaA, published 2022).
